Patent US20060035265A1

Assays:
FLAG-Zwt fusion protein [1] = test: scintillation counting of antibody-coated beads after mixing with 35S-labelled transcription/translation mix
FLAG-ZIgA fusion protein [2] = test: as above
FLAG-Zwt fusion protein [3] = test: scintillation counting of beads after mixing with 35S-labelled transcription/translation mix; negative control without antibody
FLAG-ZIgA fusion protein [4] = test: as above

Substance: biotinylated anti-FLAG BioM5 monoclonal antibody (Sigma prod no. F-2922)
- Signal (cpm) (FLAG-Zwt fusion protein [1]): 35000 cpm
- Signal (cpm) (FLAG-ZIgA fusion protein [2]): 43700 cpm

Substance: streptavidin on native streptavidin (SA) beads (M-280-SA Dynabeads) (from UniProt P22629 37-163)
- Signal (cpm) (FLAG-Zwt fusion protein [3]): 4860 cpm
- Signal (cpm) (FLAG-ZIgA fusion protein [4]): 5960 cpm
